Source: EP4799607A2

Molecular target: human VEGF165 (human) (UniProt P15692)
Experiment: population PK model estimate, Michaelis-Menten binding of free aflibercept to VEGF in plasma (in vivo, model-derived)

Sequence of UniProt P15692 (P15692 other isoform, or with tags, fused parts or gaps limits assumed): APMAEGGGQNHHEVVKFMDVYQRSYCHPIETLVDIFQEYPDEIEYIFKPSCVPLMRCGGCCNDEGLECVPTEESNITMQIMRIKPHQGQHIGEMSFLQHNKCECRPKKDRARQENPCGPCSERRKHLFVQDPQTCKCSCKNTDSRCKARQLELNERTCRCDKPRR
Sequence of aflibercept (chain): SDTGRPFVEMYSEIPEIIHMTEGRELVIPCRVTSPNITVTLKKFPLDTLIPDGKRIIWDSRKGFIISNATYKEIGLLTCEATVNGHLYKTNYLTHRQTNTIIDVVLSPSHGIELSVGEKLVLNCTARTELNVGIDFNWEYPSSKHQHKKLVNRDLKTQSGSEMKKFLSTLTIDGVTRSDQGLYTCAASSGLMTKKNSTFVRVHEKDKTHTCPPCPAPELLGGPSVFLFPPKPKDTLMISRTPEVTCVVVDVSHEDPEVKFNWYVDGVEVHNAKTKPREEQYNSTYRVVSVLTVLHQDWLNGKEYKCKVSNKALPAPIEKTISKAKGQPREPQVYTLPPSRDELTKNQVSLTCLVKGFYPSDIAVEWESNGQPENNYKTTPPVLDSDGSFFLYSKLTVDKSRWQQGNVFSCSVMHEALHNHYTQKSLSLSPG

Substance aflibercept (Fc fusion) has a KM (concentration of free aflibercept at half of maximum binding capacity with VEGF) of 0.411 mg/L and a VMK24 (maximum binding rate of free aflibercept to VEGF) of 0.167 mg/day/L.
